Values quoted from earlier work as cited in article PMC11173308.

Target: calmodulin (UniProt P0DP23)

- Kd: 7 µM
Substance: arrestin-2 (from UniProt P17870)
